Experimental data: article doi:10.1101/2024.04.12.589225

What was measured:
[1] = target: 2nd_AtGDH-ΔT262-A263 (Aspergillus terreus); assay: crystal structure
[2] = target: 2nd_AtGDH-ΔT262-A263 (Aspergillus terreus); assay: SEC
[3] = target: 7th_AtGDH-R246S (Aspergillus terreus); assay: crystal structure
[4] = target: 7th_AtGDH-R246S (Aspergillus terreus); assay: SEC
[5] = target: 8th_AtGDH-A216Q (Aspergillus terreus); assay: SEC
[6] = target: AnGDH-Q216A (Aspergillus niger); assay: SEC
[7] = target: AnGDH-S246R (Aspergillus niger); assay: SEC
[8] = target: Aspergillus niger glutamate dehydrogenase, wild type (Aspergillus niger); assay: cryo-EM structure
[9] = target: Aspergillus terreus glutamate dehydrogenase, wild type (Aspergillus terreus); assay: crystal structure
[10] = target: Aspergillus terreus glutamate dehydrogenase, wild type (Aspergillus terreus); assay: cryo-EM structure

What does the source list for 2nd_AtGDH-ΔT262-A263 (enzyme)?
stoichiometry N [1]: 6; stoichiometry N [2]: 6

For 7th_AtGDH-R246S (enzyme), which stoichiometry N [3] is on record?
Its stoichiometry N is 6.

What about the stoichiometry N [4] of the same substance?
Its stoichiometry N is 6.

How did the stoichiometry N [5] turn out when 8th_AtGDH-A216Q (enzyme) was run?
The stoichiometry N was 6.

For AnGDH-Q216A (enzyme), which stoichiometry N [6] is on record?
Its stoichiometry N is 6.

How did the stoichiometry N [7] turn out when AnGDH-S246R (enzyme) was run?
The stoichiometry N was 6.

For “Aspergillus niger glutamate dehydrogenase, wild type (enzyme)”, which stoichiometry N [8] is on record?
Its stoichiometry N is 6.

For “Aspergillus terreus glutamate dehydrogenase, wild type (enzyme)”, which stoichiometry N [9] is on record?
Its stoichiometry N is 6.

What about the stoichiometry N [10] of the same substance?
The stoichiometry N was 6.
